Source: patent publication US20030021779A1

Target: C-antigen (human)
Assay: cell-fixed ELISA, tumor cell lines

fold greater affinity than the control (BGA scFv): 8 to 50 fold
B1: H11-scFv (scFv)
scFv: DIVLTQSPGTLSLSPGERATLSCRASQSVSSSYLAWYQQKPGQAPRLLIYGASTRATGMPDRFSGSGSGTDFTLTISRLEPEDFAVYYCQQYGSSPQTPQITFGGGTKVEIKRTVAAPSVSGGGGSGGGGSGGGGSQVQLVESGGGVVQPGRSLRLSCAASGFPFRSFAMHWVRQALGKGLEWVAVISYDGSTKYYADSVKGRFTISRDTSKNTVYLKMNSLRTEDTAVYYCARDQSLLGDYDHYYGLDVWGKGTTVTVSSGSEQKLISEEDLNHHHHH
